Source: patent US20220185898A1 (Alector, published 2022)

Experiments:
[1] = target: T1, human Sortilin expressed on 293 / HEK293T cells (human, UniProt Q99523 78-830); test: FACS, HEK293T + hSort
T1 construct: full-length recombinant human Sortilin; also called hSort; SORT1
Procedure: (§1) Antibodies were diluted in FACS buffer (PBS+2% FBS+0.01% NaAzide). After incubation on ice for 1 h, cells were washed three times in FACS buffer and incubated with anti-human PE conjugated secondary antibody (BD Biosciences, 1:100 dilution) for 30 min on ice. Then cells were washed twice in 200 ul FACS buffer, and subsequently analyzed on a FACS Canto or iQE FACS screening instrument (Intellicyt Corp).

[2] = target: T2, mouse Sortilin expressed on 293 / HEK293T cells (mouse, UniProt Q6PHU5 74-825); test: FACS, HEK293T + msSort
T2 construct: full-length recombinant mouse Sortilin; also called mSort; msSort
Procedure: as §1

[3] = target: T2, mouse Sortilin expressed on 293 / …; test: FACS, 293 cells;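 note: antibodies at 10 µg/ml bound to cells for 1 h on ice, detected with PE-labelled anti-human secondary antibody by flow cytometry, reported as mean fluorescence intensity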
Procedure: (§2) Cells were harvested, plated at 10⁵/ml in a 96 well plate, washed, and incubated in 100 μl PBS containing 10 μg/ml Mab and 2% FBS for 1 hour in ice. Cells were then washed twice and incubated in 100 μl PBS+2% FBS containing 5 μg/ml PE-conjugated anti-human secondary antibody for 30 minutes in ice. Cells were washed twice in cold PBS and data was acquired on a BD FACS Canto. Data analysis and calculation of MFI values was performed with FlowJo (TreeStar) software version 10.0.7.

[4] = target: T1, human Sortilin expressed on 293 / …; test: FACS, 293 cells;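 note: antibodies at 10 µg/ml bound to cells for 1 h on ice, detected with PE-labelled anti-human secondary antibody by flow cytometry, reported as mean fluorescence intensity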
Procedure: as §2

[5] = target: T3, human Sortilin Fc fusion protein (human, UniProt Q99523 78-755); test: ForteBio, avid;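 note: whole IgG captured on AHQ sensors, then contacted with Sortilin Fc fusion antigen at 100 nM, followed by an off-rate phase in buffer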
T3 construct: whole entry named; also called hSort-Fc

[6] = target: T4, mouse Sortilin Fc fusion protein (mouse; human, UniProt Q6PHU5 74-754); test: ForteBio, avid;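 note: whole IgG captured on AHQ sensors, then contacted with Sortilin Fc fusion antigen at 100 nM, followed by an off-rate phase in buffer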
T4 construct: whole entry named; also called mSort-Fc

[7] = target: T5, biotinylated mouse Sortilin monomer (mouse, UniProt Q6PHU5 74-754, limits assumed, biotinylated); test: ForteBio, Fab
T5 construct: also called Bt-msSort
Procedure: The affinity of the anti-Sortilin antibodies was determined by measuring their KD by ForteBio and MSD. […] Briefly, ForteBio affinity measurements were performed by loading immunoglobulins (IgGs) on-line onto AHQ sensors. Sensors were equilibrated off-line in assay buffer for 30 min and then monitored on-line for 60 seconds for baseline establishment. For avid binding measurement, sensors with loaded IgGs were exposed to 100 nM antigen (human or mouse Sortilin Fc fusion) for 3 min, afterwards they were transferred to assay buffer for 3 min for off-rate measurement. […] Monovalent binding measurements were obtained by loading human or mouse Sortilin Fc fusion antigens to AHQ sensor and followed by exposure to −100 nM Sortilin antibody Fab. […] Kinetics data were fit using a 1:1 binding model in the data analysis software provided by ForteBio.

[8] = target: T5, biotinylated mouse Sortilin monomer; test: MSD-SET, Fab
Procedure: Antibodies (20 nM in PBS) were coated onto standard bind MSD-ECL plates overnight at 4° C. or at room temperature for 30 min. Plates were then blocked with 1% BSA for 30 min with shaking at 700 rpm, followed by three washes with wash buffer (PB SF+0.05% Tween 20). SET samples were applied and incubated on the plates for 150 s with shaking at 700 rpm followed by one wash. Antigen captured on a plate was detected with 250 ng/ml sulfotag-labeled streptavidin in PBSF by incubation on the plate for 3 min. The plates were washed three times with wash buffer and then read on the MSD Sector Imager 2400 instrument using 1× Read Buffer T with surfactant. The percent free antigen was plotted as a function of titrated antibody in Prism and fit to a quadratic equation to extract the KD. To improve throughput, liquid handling robots were used throughout MSD-SET experiments, including SET sample preparation.

B1: S-15-3 (antibody, V domains shown)
VH: QVQLVQSGAEVKKPGASVKVSCKASGYTFTSTYMSWVRQAPGQGLEWMGIINPYGGSTSYAQKFQGRVTMTRDTSTSTVYMELSSLRSEDTAVYYCARDPSGIAAAGPASRYYYGMDVWGQGTTVTVSS
VL: EIVMTQSPATLSVSPGERATLSCRASQSVSSNLAWYQQKPGQAPRLLIYGASTRATGIPARFSGSGSGTEFTLTISSLQSEDFAVYYCQQARLGPWTFGGGTKVEIK
notes: IgG
Kd [1]: 5.25 nM | Kd [2]: 17.9 nM

B2: S-48 (antibody, V domains shown)
VH: QVQLVESGGGVVQPGRSLRLSCAASGFTFSSYGMHWVRQAPGKGLEWVAVISYDGSNKYYADSVKGRFTISRDNSKNTLYLQMNSLRAEDTAVYYCARESGDRATLVYYYYYGMDVWGQGTTVTVSS
VL: EIVMTQSPATLSVSPGERATLSCRASQSVSSNLAWYQQKPGQAPRLLIYSASTRATGIPARFSGSGSGTEFTLTISSLQSEDFAVYYCQQYNSWPITFGGGTKVEIK
notes: IgG
MFI [3]: 11900 | MFI [4]: 8140 | Kd [5]: 4.96 nM | Kd [6]: 1.53 nM

B3: S-15-14 (antibody, V domains shown)
VH: QVQLVQSGAEVKKPGASVKVSCKASGYTFTSQYMSWVRQAPGQGLEWMGIINPYGGSTSYAQKFQGRVTMTRDTSTSTVYMELSSLRSEDTAVYYCARDPSGIAAAGPASRYYYGMDVWGQGTTVTVSS
VL: EIVMTQSPATLSVSPGERATLSCRASQSVSSNLAWYQQKPGQAPRLLIYGASTRATGIPARFSGSGSGTEFTLTISSLQSEDFAVYYCQQARLGPWTFGGGTKVEIK
notes: IgG
Kd [1]: 5.25 nM | Kd [2]: 19.4 nM

B4: S-15-6 (antibody, V domains shown)
VH: QVQLVQSGAEVKKPGASVKVSCKASGYTFTSRYMSWVRQAPGQGLEWMGIINPVGGSTSYAQKFQGRVTMTRDTSTSTVYMELSSLRSEDTAVYYCARDPSGIAAAGPASRYYYGMDVWGQGTTVTVSS
VL: EIVMTQSPATLSVSPGERATLSCRASQSVSSNLAWYQQKPGQAPRLLIYGASTRATGIPARFSGSGSGTEFTLTISSLQSEDFAVYYCQQARLGPWTFGGGTKVEIK
notes: IgG
Kd [2]: 18.9 nM

B5: S-15-6 Fab (Fab, V domains shown)
VH: QVQLVQSGAEVKKPGASVKVSCKASGYTFTSRYMSWVRQAPGQGLEWMGIINPVGGSTSYAQKFQGRVTMTRDTSTSTVYMELSSLRSEDTAVYYCARDPSGIAAAGPASRYYYGMDVWGQGTTVTVSS
VL: EIVMTQSPATLSVSPGERATLSCRASQSVSSNLAWYQQKPGQAPRLLIYGASTRATGIPARFSGSGSGTEFTLTISSLQSEDFAVYYCQQARLGPWTFGGGTKVEIK
notes: Fab by papain digestion
Kd [7]: 0.678 nM | Kd [8]: 0.07 nM

B6: S-28 (antibody, V domains shown)
VH: EVQLVESGGGLVKPGGSLRLSCAASGFTFSSYSMNWVRQAPGKGLEWVSSISSSSNYIYYADSVKGRFTISRDNAKNSLYLQMNSLRAEDTAVYYCARGGLDRWGSFDIWGQGTMVTVSS
VL: not shown
notes: IgG
MFI [3]: 21600 | MFI [4]: 8560 | Kd [5]: 0.299 nM | Kd [6]: 1.25 nM

B7: S-29 (antibody, V domains shown)
VH: EVQLVESGGGLVKPGGSLRLSCAASGFTFSSYSMNWVRQAPGKGLEWVSSISSSSNYIYYADSVKGRFTISRDNAKNSLYLQMNSLRAEDTAVYYCARGGLDRWGSFDIWGQGTMVTVSS
VL: not shown
notes: IgG
MFI [3]: 21800 | MFI [4]: 9600 | Kd [5]: 0.37 nM | Kd [6]: 1.37 nM

B8: S-82-3 Fab (Fab, V domains shown)
VH: QLQLQESGPGLVKPSETLSLTCTVSGGSISSSDYYWGWIRQPPGKGLEWIGQIYYKGSTYYNPSLKSRVTISVDTSKNQFSLKLSSVTAADTAVYYCARGVGSGYSYGYRYFDYWGQGTLVTVSS
VL: EIVLTQSPGTLSLSPGERATLSCRASQSVSSSYLAWYQQKPGQAPRLLIYGASSRATGIPDRFSGSGSGTDFTLTISRLEPEDFAVYYCQQSHVSPWTFGGGTKVEIK
notes: Fab by papain digestion
binding result [8]: no binding

B9: S-82-5 Fab (Fab, V domains shown)
VH: QLQLQESGPGLVKPSETLSLTCTVSGGSIKSSEYYWGWIRQPPGKGLEWIGSIYRAGSTYYNPSLKSRVTISVDTSKNQFSLKLSSVTAADTAVYYCARGVGSGYSYGYRYFDYWGQGTLVTVSS
VL: EIVLTQSPGTLSLSPGERATLSCRASQSVSSSYLAWYQQKPGQAPRLLIYGASSRATGIPDRFSGSGSGTDFTLTISRLEPEDFAVYYCQQSHVSPWTFGGGTKVEIK
notes: Fab by papain digestion
binding result [8]: no binding

B10: S-82-5 (antibody, V domains shown)
VH: QLQLQESGPGLVKPSETLSLTCTVSGGSIKSSEYYWGWIRQPPGKGLEWIGSIYRAGSTYYNPSLKSRVTISVDTSKNQFSLKLSSVTAADTAVYYCARGVGSGYSYGYRYFDYWGQGTLVTVSS
VL: EIVLTQSPGTLSLSPGERATLSCRASQSVSSSYLAWYQQKPGQAPRLLIYGASSRATGIPDRFSGSGSGTDFTLTISRLEPEDFAVYYCQQSHVSPWTFGGGTKVEIK
notes: IgG
binding result [2]: no binding (tested: 0.39-50 nM antibody)

B11: S-82-3 (antibody, V domains shown)
VH: QLQLQESGPGLVKPSETLSLTCTVSGGSISSSDYYWGWIRQPPGKGLEWIGQIYYKGSTYYNPSLKSRVTISVDTSKNQFSLKLSSVTAADTAVYYCARGVGSGYSYGYRYFDYWGQGTLVTVSS
VL: EIVLTQSPGTLSLSPGERATLSCRASQSVSSSYLAWYQQKPGQAPRLLIYGASSRATGIPDRFSGSGSGTDFTLTISRLEPEDFAVYYCQQSHVSPWTFGGGTKVEIK
notes: IgG
binding result [2]: no binding (tested: 0.39-50 nM antibody)

B12: S-18 (antibody, V domains shown)
VH: QVQLVQSGAEVKKPGSSVKVSCKASGGTFSSYAISWVRQAPGQGLEWMGSIIPIFGTANYAQKFQGRVTITADESTSTAYMELSSLRSEDTAVYYCARDKHGRRGYYYYMDVWGKGTTVTVSS
VL: EIVLTQSPATLSLSPGERATLSCRASQSVSSYLAWYQQKPGQAPRLLIYDASNRATGIPARFSGSGSGTDFTLTISSLEPEDFAVYYCQQGANAPPRTFGGGTKVEIK
notes: IgG
MFI [3]: 21700 | MFI [4]: 9350 | Kd [5]: 0.475 nM | Kd [6]: 2.3 nM

B13: S-10 (antibody, V domains shown)
VH: QVQLVQSGAEVKKPGASVKVSCKASGYTFTSYGISWVRQAPGQGLEWMGWISAYNGNTNYAQKLQGRVTMTTDTSTSTAYMELRSLRSDDTAVYYCARDPGGYGPTLYYYYGMDVWGQGTTVTVSS
VL: EIVMTQSPATLSVSPGERATLSCRASQSVSSNLAWYQQKPGQAPRLLIYGASTRATGIPARFSGSGSGTEFTLTISSLQSEDFAVYYCQQYADWPPITFGGGTKVEIK
notes: IgG
MFI [3]: 19400 | MFI [4]: 8660 | Kd [5]: 11 nM | Kd [6]: 2.29 nM

B14: S-2-1 (antibody, V domains shown)
VH: QVQLVQSGAEVKKPGASVKVSCKASGYTFGAYYMHWVRQAPGQGLEWMGWINPNSGFTRYAQKFQGRVTMTRDTSISTAYMELSRLRSDDTAVYYCARGKRSSGWYEGYGMDVWGQGTTVTVSS
VL: DIQMTQSPSSLSASVGDRVTITCRASQSISSYLNWYQQKPGKAPKLLIYAASSLQSGVPSRFSGSGSGTDFTLTISSLQPEDFATYYCQQSDVSPITFGGGTKVEIK
notes: IgG
Kd [1]: 0.691 nM | Kd [2]: 2.65 nM

B15: S-21 (antibody, V domains shown)
VH: QVQLVQSGAEVKKPGSSVKVSCKASGGTFSSYAISWVRQAPGQGLEWMGSIIPIFGTANYAQKFQGRVTITADESTSTAYMELSSLRSEDTAVYYCARERRYDGYYYYYGMDVWGQGTTVTVSS
VL: DIQMTQSPSSLSASVGDRVTITCRASQSISSYLNWYQQKPGKAPKLLIYAASSLQSGVPSRFSGSGSGTDFTLTISSLQPEDFATYYCQQKASLPFTFGGGTKVEIK
notes: IgG
MFI [3]: 22900 | MFI [4]: 9380 | Kd [5]: 1.87 nM | Kd [6]: 2.8 nM

B16: S-19 (antibody, V domains shown)
VH: QVQLVQSGAEVKKPGSSVKVSCKASGGTFSSYAISWVRQAPGQGLEWMGGIIPIFGTASYAQKFQGRVTITADESTSTAYMELSSLRSEDTAVYYCARESRIPGSGYYYYYGMDVWGQGTTVTVSS
VL: DIQMTQSPSSLSASVGDRVTITCRASQSISSYLNWYQQKPGKAPKLLIYSASSLQSGVPSRFSGSGSGTDFTLTISSLQPEDFATYYCQQTDGKPPTFGGGTKVEIK
notes: IgG
MFI [3]: 28200 | MFI [4]: 11700 | Kd [5]: 0.843 nM | Kd [6]: 0.733 nM

B17: S-2-2 Fab (Fab, V domains shown)
VH: QVQLVQSGAEVKKPGASVKVSCKASGYTFVAYYMHWVRQAPGQGLEWMGWINPNSGATRYAQKFQGRVTMTRDTSISTAYMELSRLRSDDTAVYYCARGKRSSGWYEGYGMDVWGQGTTVTVSS
VL: DIQMTQSPSSLSASVGDRVTITCRASQSISSYLNWYQQKPGKAPKLLIYAASSLQSGVPSRFSGSGSGTDFTLTISSLQPEDFATYYCQQSDVSPITFGGGTKVEIK
notes: Fab by papain digestion
Kd [7]: 2.68 nM | Kd [8]: 0.79 nM

B18: S-2-2 (antibody, V domains shown)
VH: QVQLVQSGAEVKKPGASVKVSCKASGYTFVAYYMHWVRQAPGQGLEWMGWINPNSGATRYAQKFQGRVTMTRDTSISTAYMELSRLRSDDTAVYYCARGKRSSGWYEGYGMDVWGQGTTVTVSS
VL: DIQMTQSPSSLSASVGDRVTITCRASQSISSYLNWYQQKPGKAPKLLIYAASSLQSGVPSRFSGSGSGTDFTLTISSLQPEDFATYYCQQSDVSPITFGGGTKVEIK
notes: IgG
Kd [2]: 2.27 nM

B19: S-2-11 (antibody, V domains shown)
VH: QVQLVQSGAEVKKPGASVKVSCKASGYTFLAYYMHWVRQAPGQGLEWMGWINPSWGSTSYAQKFQGRVTMTRDTSISTAYMELSRLRSDDTAVYYCARGKRSSGWYEGYGMDVWGQGTTVTVSS
VL: DIQMTQSPSSLSASVGDRVTITCRASQSISSYLNWYQQKPGKAPKLLIYAASSLQSGVPSRFSGSGSGTDFTLTISSLQPEDFATYYCQQSDVSPITFGGGTKVEIK
notes: IgG
Kd [1]: 0.377 nM | Kd [2]: 1.54 nM
